Measurements taken from US20190300967.

System: high-mobility group box 1 (HMGB1)
Sequence (chain, as listed by the source): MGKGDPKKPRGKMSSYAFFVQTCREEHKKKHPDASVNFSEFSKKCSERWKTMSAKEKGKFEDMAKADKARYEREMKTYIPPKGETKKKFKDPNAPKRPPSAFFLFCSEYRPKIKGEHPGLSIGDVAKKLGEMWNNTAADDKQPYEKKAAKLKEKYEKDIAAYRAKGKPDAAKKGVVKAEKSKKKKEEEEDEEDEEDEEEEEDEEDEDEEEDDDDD

MAGE-A3/6-TRIM28 E3 ubiquitin ligase
in vitro ubiquitination reactions on protein microarrays containing >9000 recombinant proteins (screen for direct substrates of MAGE-A): As a significantly ubiquitinated target of the MAGE-TRIM28 complex, high-mobility group box 1 (HMGB1) emerged
